# Source: patent US20060068468A1 (ACCELERON PHARMA, published 2006)
# Numbering of substitutions follows the chain as printed. Numbers in names are those of the source.
# T1: GDF-11 (UniProt O95390 299-407)
# T1 construct: also called Growth and Differentiation Factor-11; BMP11
# T1 sequence (looked up): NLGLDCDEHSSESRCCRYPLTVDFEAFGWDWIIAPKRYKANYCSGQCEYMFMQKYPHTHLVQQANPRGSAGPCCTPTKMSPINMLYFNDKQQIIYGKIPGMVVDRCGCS
# T2: Activin A (UniProt P08476 311-426)
# T2 construct: also called ActA
# T2 sequence (looked up): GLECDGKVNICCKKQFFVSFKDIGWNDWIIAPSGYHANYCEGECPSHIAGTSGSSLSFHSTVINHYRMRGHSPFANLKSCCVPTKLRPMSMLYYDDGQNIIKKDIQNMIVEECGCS
# B1: ActRIIB-Fc D80R (Fc fusion)
# chain: SGRGEAETRECIYYNANWELERTNQSGLERCEGEQDKRLHCYASWANSSGTIELVKKGCWLRDFNCYDRQECVATEENPQVYFCCCEGNFCNERFTHLPEAGGGTHTCPPCPAPELLGGPSVFLFPPKPKDTLMISRTPEVTCVVVDVSHEDPEVKFNWYVDGVEVHNAKTKPREEQYNSTYRVVSVLTVLHQDWLNGKEYKCKVSNKALPVPIEKTISKAKGQPREPQVYTLPPSREEMTKNQVSLTCLVKGFYPSDIAVEWESNGQPENNYKTTPPVLDSDGSFFLYSKLTVDKSRWQQGNVFSCSVMHEALHNHYTQKSLSLSPGK
# notes: Mutation in the background ActRIIB-Fc
# B2: ActRIIB-Fc D80K (Fc fusion)
# chain: B1 chain with R62K
# notes: as for B1
# B3: ActRIIB-Fc K55A (Fc fusion)
# chain: B1 chain with K37A, R62D
# notes: as for B1
# B4: ActRIIB-Fc D54A (Fc fusion)
# chain: B1 chain with D36A, R62D
# notes: as for B1
# B5: ActRIIB-Fc D80F (Fc fusion)
# chain: B1 chain with R62F
# notes: as for B1
# B6: ActRIIB-Fc D80N (Fc fusion)
# chain: B1 chain with R62N
# notes: as for B1
# B7: ActRIIB-Fc E37A (Fc fusion)
# chain: B1 chain with E19A, R62D
# notes: as for B1
# B8: ActRIIB-Fc R56A (Fc fusion)
# chain: B1 chain with R38A, R62D
# notes: as for B1
# B9: ActRIIB-Fc D80G (Fc fusion)
# chain: B1 chain with R62G
# notes: as for B1
# B10: ActRIIB-Fc L79A (Fc fusion)
# chain: B1 chain with L61A, R62D
# notes: as for B1
# B11: ActRIIB-Fc D80M (Fc fusion)
# chain: B1 chain with R62M
# notes: as for B1
# B12: ActRIIB-Fc D80A (Fc fusion)
# chain: B1 chain with R62A
# notes: as for B1
# B13: ActRIIB-Fc W78A (Fc fusion)
# chain: B1 chain with W60A, R62D
# notes: as for B1
# B14: ActRIIB-Fc K74F (Fc fusion)
# chain: B1 chain with K56F, R62D
# notes: as for B1
# B15: ActRIIB-Fc K74Y (Fc fusion)
# chain: B1 chain with K56Y, R62D
# notes: as for B1
# B16: ActRIIB-Fc D80I (Fc fusion)
# chain: B1 chain with R62I
# notes: as for B1
# B17: ActRIIB-Fc K74I (Fc fusion)
# chain: B1 chain with K56I, R62D
# notes: as for B1
# B18: ActRIIB-Fc +15tail (Fc fusion)
# chain: SGRGEAETRECIYYNANWELERTNQSGLERCEGEQDKRLHCYASWANSSGTIELVKKGCWLDDFNCYDRQECVATEENPQVYFCCCEGNFCNERFTHLPEAGGPEVTYEPPPTAPTGGGTHTCPPCPAPELLGGPSVFLFPPKPKDTLMISRTPEVTCVVVDVSHEDPEVKFNWYVDGVEVHNAKTKPREEQYNSTYRVVSVLTVLHQDWLNGKEYKCKVSNKALPVPIEKTISKAKGQPREPQVYTLPPSREEMTKNQVSLTCLVKGFYPSDIAVEWESNGQPENNYKTTPPVLDSDGSFFLYSKLTVDKSRWQQGNVFSCSVMHEALHNHYTQKSLSLSPGK
# notes: also called ActRIIB-Fc with the C-terminal 15 amino acids of the extracellular domain
# B19: background ActRIIB-Fc fusion, WT (64A) (Fc fusion)
# chain: B1 chain with R62D
# notes: Made in HEK293T or CHO cells and purified on protein A; also called wild-type (background A64) ActRIIB-Fc; background A64 construct
# B20: ActRIIB-Fc F82A (Fc fusion)
# chain: B1 chain with R62D, F64A
# notes: as for B1
# B21: ActRIIB-Fc WT (64R) (Fc fusion)
# chain: B1 chain with A46R, R62D
# notes: also called A64R
# B22: ActRIIB-Fc K74A (Fc fusion)
# chain: B1 chain with K56A, R62D
# notes: as for B1
# B23: ActRIIB-Fc R40A (Fc fusion)
# chain: B1 chain with R22A, R62D
# notes: as for B1
# Target: T1, GDF-11
# Assay: BiaCore, ligand immobilized on CM5 chip
# Method: (§1) GDF-11 or Activin A (“ActA”) were immobilized on a BiaCore CM5 chip using standard amine coupling procedure. The ActRIIB-Fc mutant or wild-type protein was loaded onto the system, and binding was measured.
row,binding result,Binder
1,no binding,B1
2,no binding,B2
3,no binding,B3
4,no binding,B4
5,no binding,B5
6,no binding,B6
7,no binding,B7
8,no binding,B8
9,no binding,B9
10,no binding,B10
11,no binding,B11
12,no binding,B12
13,no binding,B13

# Target: T2, Activin A
# Assay: BiaCore, ligand immobilized on CM5 chip
# Method: as §1
row,binding result,Binder
1,no binding,B1
2,no binding,B2
3,no binding,B5
4,no binding,B6
5,no binding,B14
6,no binding,B15
7,no binding,B7
8,no binding,B8
9,no binding,B16
10,no binding,B9
11,no binding,B11
12,no binding,B12
13,no binding,B17
14,no binding,B13

# Target: T1, GDF-11
# Assay: BiaCore (SPR); ligand amine-coupled to CM5 chip, ActRIIB-Fc injected
# Method: as §1
Kd,binding result,Binder
19 nM,,B18
260 nM,,B19
,binds,B20
,binds,B14
,binds,B15
86 nM,,B21
,binds,B16
5.3 nM,,B22
,binds,B23
,binds,B17

# Target: T2, Activin A
# Assay: as above
# Method: as §1
Kd,binding result,Binder
~26 nM,,B18
180 nM,,B19
,binds,B4
,binds,B10
4.35 nM,,B22
,binds,B23
